What all share (conditions): both partners purified
The target of assay [1] is T1, P6A-mScarlet-I (Arabidopsis PIF6 residues 14 to 53, APB.A portion, fused to mScarlet-I) (Arabidopsis thaliana, UniProt Q8L5W7 14-53).
T1 construct: mScarlet-I: GenBank APD76536; source: E. coli LOBSTR, purified (IMAC, SENP2 cleavage, second IMAC, optionally anion exchange); not shown: His6-SUMO, N-terminal, cleaved; mScarlet-I, C-terminal, kept
T1 chain (looked up): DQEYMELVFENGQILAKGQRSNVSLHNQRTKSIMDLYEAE
As to the kind of experiment: FRET or BRET; equilibrium titration: 20 nM P6A-mScarlet-I with 0 to 2,000 nM AtPhyB PCM at 15 °C after red light (658 nm); 50 mM Tris/HCl pH 8.0, 20 mM NaCl, 100 μg/mL BSA; single-site binding isotherm.

Assay [2] addresses T2, PIF6-mScarlet-I (Arabidopsis PIF6 residues 1 to 100 fused to mScarlet-I) (Arabidopsis thaliana, UniProt Q8L5W7 1-100).
T2 construct: mScarlet-I: GenBank APD76536; also called AtPIF6; source: E. coli LOBSTR, purified (IMAC, SENP2 cleavage, second IMAC, optionally anion exchange); not shown: His6-SUMO, N-terminal, cleaved
T2 sequence (looked up): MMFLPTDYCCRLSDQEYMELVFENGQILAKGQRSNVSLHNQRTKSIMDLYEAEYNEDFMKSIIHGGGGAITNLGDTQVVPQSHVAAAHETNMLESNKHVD
As to the kind of experiment: FRET or BRET; as a5 (association and dissociation kinetics after a red-light pulse) at several temperatures up to 30 °C; values told for 30 °C or for 30 °C against 15 °C.

The target of assay [3] is T1, P6A-mScarlet-I (Arabidopsis PIF6 …). The description is as above.
Assay [4] addresses T2, PIF6-mScarlet-I (Arabidopsis PIF6 …). The assay can be described thus: FRET or BRET; dissociation kinetics at 15 °C under continuous far-red light (733 nm, 42 mW cm^-2) after saturating red light; same samples as a5; consecutive model (Pfr to Pr reversion, then dissociation); kaR fixed at 0 (Pr state).
Assay [5] has as its target T3, P3A-mScarlet-I (Arabidopsis PIF3 residues 14 to 55, APB.A portion, fused to mScarlet-I) (Arabidopsis thaliana, UniProt O80536 14-55).
T3 construct: mScarlet-I: GenBank APD76536; source: E. coli LOBSTR, purified (IMAC, SENP2 cleavage, second IMAC, optionally anion exchange); not shown: His6-SUMO, N-terminal, cleaved; mScarlet-I, C-terminal, kept
T3 chain (looked up): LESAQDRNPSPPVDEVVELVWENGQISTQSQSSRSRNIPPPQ
The assay is described as above.

Assay [6] deals with T1, P6A-mScarlet-I (Arabidopsis PIF6 …). The assay is described as above.
The target in assay [7] is T4, PIF3-mScarlet-I (Arabidopsis PIF3 residues 1 to 100 fused to mScarlet-I) (Arabidopsis thaliana, UniProt O80536 1-100).
T4 construct: mScarlet-I: GenBank APD76536; also called AtPIF3; source: E. coli LOBSTR, purified (IMAC, SENP2 cleavage, second IMAC, optionally anion exchange); not shown: His6-SUMO, N-terminal, cleaved
T4 sequence (looked up): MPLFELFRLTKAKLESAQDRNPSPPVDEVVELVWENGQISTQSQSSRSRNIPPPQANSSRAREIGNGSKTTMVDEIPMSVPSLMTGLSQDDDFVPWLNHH
The description is as above.

From paper PMC11638003, “Plant phytochrome interactions decode light and temperature signals” (The Plant Cell, 2024) come the findings set out here.

B1: Arabidopsis thaliana phytochrome B, N-terminal fragment encompassing the N-terminal extension (NTE) and the photosensory core module (AtPhyB PCM) (domain or fragment, UniProt P14713 1-651, looked up)
chain: MVSGVGGSGGGRGGGRGGEEEPSSSHTPNNRRGGEQAQSSGTKSLRPRSNTESMSKAIQQYTVDARLHAVFEQSGESGKSFDYSQSLKTTTYGSSVPEQQITAYLSRIQRGGYIQPFGCMIAVDESSFRIIGYSENAREMLGIMPQSVPTLEKPEILAMGTDVRSLFTSSSSILLERAFVAREITLLNPVWIHSKNTGKPFYAILHRIDVGVVIDLEPARTEDPALSIAGAVQSQKLAVRAISQLQALPGGDIKLLCDTVVESVRDLTGYDRVMVYKFHEDEHGEVVAESKRDDLEPYIGLHYPATDIPQASRFLFKQNRVRMIVDCNATPVLVVQDDRLTQSMCLVGSTLRAPHGCHSQYMANMGSIASLAMAVIINGNEDDGSNVASGRSSMRLWGLVVCHHTSSRCIPFPLRYACEFLMQAFGLQLNMELQLALQMSEKRVLRTQTLLCDMLLRDSPAGIVTQSPSIMDLVKCDGAAFLYHGKYYPLGVAPSEVQIKDVVEWLLANHADSTGLSTDSLGDAGYPGAAALGDAVCGMAVAYITKRDFLFWFRSHTAKEIKWGGAKHHPEDKDDGQRMHPRSSFQAFLEVVKSRSQPWETAEMDAIHSLQLILRDSFKESEAAMNSKVVDGVVQPCRDMAGEQGIDELGA
modifications: phycocyanobilin chromophore, covalently bound
notes: Phytochrome B, Arabidopsis thaliana, GenBank CAA35222.1; N-terminal fragment with the NTE and the PCM (nPAS-GAF-PHY), lacking PAS1, PAS2 and the HKRD; source: E. coli LOBSTR, purified (Co2+-NTA IMAC, anion exchange); plasmid also encodes Synechocystis sp. heme oxygenase 1 and PcyA
With B1, in assay [1], the “KD on the total AtPhyB concentration (not corrected for the Pfr fraction)” value was 180 ± 110 nM. The “fold reduction of the affinity, 30 °C against 15 °C” value in assay [2] was around 5 fold. Also, the “fold change of kaFR, 30 °C against 15 °C” value in assay [3] worked out at 1.3 fold. Besides, in assay [3], the “fold change of kdFR, 30 °C against 15 °C” value was 6.5 fold. Besides, the “kdR (dissociation rate constant of the complex in the Pr state)” value came to 0.26 s⁻¹ in assay [4], 1.9 s⁻¹ in assay [5], 2.5 s⁻¹ in assay [6] and 1.6 s⁻¹ in assay [7].
